# Literature values as cited in PMC3562316.
# Target: IGF1R (Homo sapiens) (UniProt P08069)
substance,measurement,value
IGF-2 (from UniProt P01344),Kd,0.2 nM
